Test results taken from publication doi:10.1101/2024.07.16.603699 (bioRxiv, 2024).

T1: Saccharolobus solfataricus ribosomal protein uS3 (S. solfataricus (endogenous in the …, UniProt Q9UXA0 1-229))
T1 sequence (looked up): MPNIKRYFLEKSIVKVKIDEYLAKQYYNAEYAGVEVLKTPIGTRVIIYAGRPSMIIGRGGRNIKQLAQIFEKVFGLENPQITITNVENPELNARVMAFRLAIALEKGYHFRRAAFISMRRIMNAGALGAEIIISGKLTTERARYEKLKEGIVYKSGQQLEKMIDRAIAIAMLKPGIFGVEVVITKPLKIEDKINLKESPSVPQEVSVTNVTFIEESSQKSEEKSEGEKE

T2: Saccharolobus solfataricus ribosomal protein uS13 (S. solfataricus (endogenous in the …, UniProt P95986 1-165))
T2 sequence (looked up): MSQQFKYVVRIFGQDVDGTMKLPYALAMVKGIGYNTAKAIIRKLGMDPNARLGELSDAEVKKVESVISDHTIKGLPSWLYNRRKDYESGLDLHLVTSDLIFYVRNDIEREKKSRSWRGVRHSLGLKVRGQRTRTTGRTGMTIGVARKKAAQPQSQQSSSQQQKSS

B1: Saccharolobus solfataricus ribosomal protein aS34 (natural protein, UniProt Q97ZK4 1-72, looked up)
chain: MSIKNRGSNAYGHLGWLTVYCRICNRKLIIGTDILYKCPKCEKKYSAYFCEADKRGLKGKCPYCGTELVPIL
B2: Saccharolobus solfataricus ribosomal protein eS25 (natural protein, UniProt Q97ZZ6 1-110, looked up)
chain: MGGASKKPISTMEKRLKKEAEKQQKAEEKKKGPSKTGKEIISRAVTIDEETKKKVLDEIKKESIITPYALATKSGISISVARKILKELENQNVVKLYSKNRRLEIYIAAS
B3: Saccharolobus solfataricus ribosomal protein uS14 (natural protein, UniProt Q97ZQ5 1-54, looked up)
chain: MGKYKPPAERKYGKGVQSCQRCGSKDSVIQKYGIYLCRQCFREVAYELGFRKYW

Experiments:
Experiment in all cases: cryo-EM structure
[1] = biological target: T1, Saccharolobus solfataricus ribosomal …
[2] = biological target: T2, Saccharolobus solfataricus ribosomal …
[3] = biological target: B1

Binder: B1
binding result [1]: binds

Binder: B2
binding result [2]: binds

Binder: B3
binding result [3]: binds
